According to patent publication US7642244 (Hoffmann-La Roche, dated 2010):
Starred links: 1 amine or outer side, 2 acyl side, 3 side chain; linkers in the order of their positions; H or OH if unused. Non-standard residues stand in square brackets, D forms with d. Primed or numbered codes have the meaning given here. *: point of attachment. Pqa = 4-oxo-6-(1-piperazinyl)-3(4H)-quinazoline-acetic acid, O=C(Cn1cnc2ccc(N3CCN([*:1])CC3)cc2c1=O)[*:2]; Adamantane1carbonyl = O=C(C12CC3CC(CC(C3)C1)C2)*; PEG30,000 SSA″ = PEG-CH2CH2NHCOCH2CH2CO-; PEG30,000 SPA = (PEG-30,000)CH2CH2CO; NMeR = CN[C@@H](CCCNC(=N)N)C(=O)O

T1: human NPY2 receptor (human, UniProt P49146 1-381)
T1 sequence (looked up): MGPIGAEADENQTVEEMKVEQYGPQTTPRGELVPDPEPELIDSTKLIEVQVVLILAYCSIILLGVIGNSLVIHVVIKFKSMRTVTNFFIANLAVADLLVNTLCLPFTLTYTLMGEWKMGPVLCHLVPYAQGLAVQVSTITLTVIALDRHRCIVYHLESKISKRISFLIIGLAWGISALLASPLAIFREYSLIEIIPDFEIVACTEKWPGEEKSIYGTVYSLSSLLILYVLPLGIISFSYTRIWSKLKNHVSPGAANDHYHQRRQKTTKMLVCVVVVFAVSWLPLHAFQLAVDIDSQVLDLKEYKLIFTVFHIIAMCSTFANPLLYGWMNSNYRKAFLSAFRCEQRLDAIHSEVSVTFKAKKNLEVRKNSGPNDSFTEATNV

T2: Y5R
T2 sequence (Q15761 whole entry, species assumed, looked up): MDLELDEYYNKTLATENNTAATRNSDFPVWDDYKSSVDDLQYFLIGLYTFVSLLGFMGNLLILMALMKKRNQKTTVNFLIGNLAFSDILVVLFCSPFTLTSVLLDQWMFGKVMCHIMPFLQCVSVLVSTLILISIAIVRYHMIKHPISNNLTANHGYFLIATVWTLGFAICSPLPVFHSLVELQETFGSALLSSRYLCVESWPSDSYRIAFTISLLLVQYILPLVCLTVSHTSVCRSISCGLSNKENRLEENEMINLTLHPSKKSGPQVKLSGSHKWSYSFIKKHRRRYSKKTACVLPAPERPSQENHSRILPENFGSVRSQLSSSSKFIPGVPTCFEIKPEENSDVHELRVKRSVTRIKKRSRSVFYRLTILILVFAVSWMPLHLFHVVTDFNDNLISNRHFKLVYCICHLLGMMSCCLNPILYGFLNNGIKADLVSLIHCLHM

B1: Benzoyl-Ile-Lys-Pqa-Arg-His-Tyr-Leu-Asn-Trp-Val-Thr-Arg-Gln-(NMe)Arg-Tyr-NH2 (peptide)
peptide: IKXRHYLNWVTRQRY
HELM: PEPTIDE1{[O=C(c1ccccc1)[*:2]].I.K.[O=C(Cn1cnc2ccc(N3CCN([*:1])CC3)cc2c1=O)[*:2]].R.H.Y.L.N.W.V.T.R.Q.[meR].Y.[am]}$$$$V2.0
SMILES: CC[C@H](C)[C@H](NC(=O)c1ccccc1)C(=O)N[C@@H](CCCCN)C(=O)N1CCN(c2ccc3ncn(CC(=O)N[C@@H](CCCNC(=N)N)C(=O)N[C@@H](Cc4c[nH]cn4)C(=O)N[C@@H](Cc4ccc(O)cc4)C(=O)N[C@@H](CC(C)C)C(=O)N[C@@H](CC(N)=O)C(=O)N[C@@H](Cc4c[nH]c5ccccc45)C(=O)N[C@H](C(=O)N[C@H](C(=O)N[C@@H](CCCNC(=N)N)C(=O)N[C@@H](CCC(N)=O)C(=O)N(C)[C@@H](CCCNC(=N)N)C(=O)N[C@@H](Cc4ccc(O)cc4)C(N)=O)[C@@H](C)O)C(C)C)c(=O)c3c2)CC1
B2: H-Ile-Lys-Pqa-Arg-His-Tyr-Leu-Asn-Leu-Val-Thr-Arg-Gln-NMe)Arg-Trp-NH2 (peptide)
peptide: IKXRHYLNLVTRQRW
HELM: PEPTIDE1{I.K.[O=C(Cn1cnc2ccc(N3CCN([*:1])CC3)cc2c1=O)[*:2]].R.H.Y.L.N.L.V.T.R.Q.[meR].W.[am]}$$$$V2.0
SMILES: CC[C@H](C)[C@H](N)C(=O)N[C@@H](CCCCN)C(=O)N1CCN(c2ccc3ncn(CC(=O)N[C@@H](CCCNC(=N)N)C(=O)N[C@@H](Cc4c[nH]cn4)C(=O)N[C@@H](Cc4ccc(O)cc4)C(=O)N[C@@H](CC(C)C)C(=O)N[C@@H](CC(N)=O)C(=O)N[C@@H](CC(C)C)C(=O)N[C@H](C(=O)N[C@H](C(=O)N[C@@H](CCCNC(=N)N)C(=O)N[C@@H](CCC(N)=O)C(=O)N(C)[C@@H](CCCNC(=N)N)C(=O)N[C@@H](Cc4c[nH]c5ccccc45)C(N)=O)[C@@H](C)O)C(C)C)c(=O)c3c2)CC1

Each binder was assayed against T1, human NPY2 receptor (assay: cell-based or functional assay).

Binder | Y2R EC50 (nM) FLIPR [nM] | Y2R EC50 (nM) cAMP [nM]
Ac-IK(PEG30,000 SPA)[Pqa]RHYLNWVTRQ[NMeR]Y-NH2 [Ac-Ile(PEG-30,000)CH2CH2CO(ε)Lys-Pqa-Arg-His-Tyr-Leu-Asn-Trp-Val-Thr-Arg-Gln-(NMe)Arg-Tyr-NH2] | 549 | 24.4
B1 | 0.79 | 0.66
B2 | 0.454 | 1.06
Ac-IK(PEG30,000 SSA″)[Pqa]RHYLNWVTRQ[NMeR]Y-NH2 | 1080 | 20.7
Adamantane1carbonyl-IK[Pqa]RHYLNWVTRQ[NMeR]Y-NH2 [Adamantoyl-Ile-Lys-Pqa-Arg-His-Tyr-Leu-Asn-Trp-Val-Thr-Arg-Gln-(NMe)Arg-Tyr-NH2] | 2.33 | 2.9

These binders were tested against Y1R (assay: cell-based or functional assay).
Y1R, sequence (P25929 whole entry): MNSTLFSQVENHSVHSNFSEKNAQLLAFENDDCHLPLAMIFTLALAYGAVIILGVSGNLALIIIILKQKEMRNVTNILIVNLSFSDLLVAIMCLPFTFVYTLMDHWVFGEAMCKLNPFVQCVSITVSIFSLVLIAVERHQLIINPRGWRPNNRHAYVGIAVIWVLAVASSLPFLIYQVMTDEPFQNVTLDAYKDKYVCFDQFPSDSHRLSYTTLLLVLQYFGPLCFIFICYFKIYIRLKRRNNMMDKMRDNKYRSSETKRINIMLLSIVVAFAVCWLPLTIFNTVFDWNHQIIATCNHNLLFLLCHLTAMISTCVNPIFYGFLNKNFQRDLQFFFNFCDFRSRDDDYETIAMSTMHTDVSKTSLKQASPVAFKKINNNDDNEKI

Binder | Y1R EC50 (nM) FLIPR [nM]
Ac-IK(PEG30,000 SPA)[Pqa]RHYLNWVTRQ[NMeR]Y-NH2 [Ac-Ile(PEG-30,000)CH2CH2CO(ε)Lys-Pqa-Arg-His-Tyr-Leu-Asn-Trp-Val-Thr-Arg-Gln-(NMe)Arg-Tyr-NH2] | > 5000
B1 | > 5000
B2 | > 5000
Ac-IK(PEG30,000 SSA″)[Pqa]RHYLNWVTRQ[NMeR]Y-NH2 | > 5000
Adamantane1carbonyl-IK[Pqa]RHYLNWVTRQ[NMeR]Y-NH2 [Adamantoyl-Ile-Lys-Pqa-Arg-His-Tyr-Leu-Asn-Trp-Val-Thr-Arg-Gln-(NMe)Arg-Tyr-NH2] | > 5000

These binders were tested against Y4R (assay: cell-based or functional assay).

Binder | Y4R EC50 (nM) FLIPR [nM]
Ac-IK(PEG30,000 SPA)[Pqa]RHYLNWVTRQ[NMeR]Y-NH2 [Ac-Ile(PEG-30,000)CH2CH2CO(ε)Lys-Pqa-Arg-His-Tyr-Leu-Asn-Trp-Val-Thr-Arg-Gln-(NMe)Arg-Tyr-NH2] | > 5000
B1 | > 5000
B2 | > 5000
Ac-IK(PEG30,000 SSA″)[Pqa]RHYLNWVTRQ[NMeR]Y-NH2 | > 5000
Adamantane1carbonyl-IK[Pqa]RHYLNWVTRQ[NMeR]Y-NH2 [Adamantoyl-Ile-Lys-Pqa-Arg-His-Tyr-Leu-Asn-Trp-Val-Thr-Arg-Gln-(NMe)Arg-Tyr-NH2] | > 5000

These binders were tested against T2, Y5R (assay: cell-based or functional assay).

Binder | Y5R EC50 (nM) FLIPR [nM]
Ac-IK(PEG30,000 SPA)[Pqa]RHYLNWVTRQ[NMeR]Y-NH2 [Ac-Ile(PEG-30,000)CH2CH2CO(ε)Lys-Pqa-Arg-His-Tyr-Leu-Asn-Trp-Val-Thr-Arg-Gln-(NMe)Arg-Tyr-NH2] | > 5000
B1 | > 5000
B2 | > 5000
Ac-IK(PEG30,000 SSA″)[Pqa]RHYLNWVTRQ[NMeR]Y-NH2 | > 5000
Adamantane1carbonyl-IK[Pqa]RHYLNWVTRQ[NMeR]Y-NH2 [Adamantoyl-Ile-Lys-Pqa-Arg-His-Tyr-Leu-Asn-Trp-Val-Thr-Arg-Gln-(NMe)Arg-Tyr-NH2] | > 5000
